Measured values from publication PMC11065870, “The complete assembly of human LAT1-4F2hc complex provides insights into its regulation, function and localisation” (Nature Communications, 2024).
Blank lines part the entries; values can stand above or below the binder they belong to.

What was measured:
[1] = biological target: the molecule itself; experiment: native MS; complex at about 4 µM in 200 mM ammonium acetate pH 7.0 with 2 mM OGNG, released from OGNG micelles, Q Exactive UHMR, positive mode
[2] = biological target: the molecule itself; experiment: native MS; LAT1 alone; sample and conditions not told in the text (Supplementary Fig. 12C)
[3] = biological target: T1, 4F2 cell-surface antigen heavy chain (4F2hc, SLC3A2), fully glycosylated (human, UniProt P08195-1 1-630, four highly branched, sialylated N-glycans at Asn365, Asn381, Asn424 and Asn506 (9 to 16 sialic acid residues); one phosphorylation site (residue not given)); experiment: native MS; complex at about 4 µM in 200 mM ammonium acetate pH 7.0 with 2 mM OGNG, released from OGNG micelles, Q Exactive UHMR, positive mode; settings: both partners purified
T1 construct: 4F2 cell-surface antigen heavy chain (4F2hc, SLC3A2), human, full-length cDNA in pCAG; source: HEK293F, co-transfected with LAT1, purified (anti-Flag M2 resin, Ni-NTA, SEC) in digitonin
T1 sequence (looked up): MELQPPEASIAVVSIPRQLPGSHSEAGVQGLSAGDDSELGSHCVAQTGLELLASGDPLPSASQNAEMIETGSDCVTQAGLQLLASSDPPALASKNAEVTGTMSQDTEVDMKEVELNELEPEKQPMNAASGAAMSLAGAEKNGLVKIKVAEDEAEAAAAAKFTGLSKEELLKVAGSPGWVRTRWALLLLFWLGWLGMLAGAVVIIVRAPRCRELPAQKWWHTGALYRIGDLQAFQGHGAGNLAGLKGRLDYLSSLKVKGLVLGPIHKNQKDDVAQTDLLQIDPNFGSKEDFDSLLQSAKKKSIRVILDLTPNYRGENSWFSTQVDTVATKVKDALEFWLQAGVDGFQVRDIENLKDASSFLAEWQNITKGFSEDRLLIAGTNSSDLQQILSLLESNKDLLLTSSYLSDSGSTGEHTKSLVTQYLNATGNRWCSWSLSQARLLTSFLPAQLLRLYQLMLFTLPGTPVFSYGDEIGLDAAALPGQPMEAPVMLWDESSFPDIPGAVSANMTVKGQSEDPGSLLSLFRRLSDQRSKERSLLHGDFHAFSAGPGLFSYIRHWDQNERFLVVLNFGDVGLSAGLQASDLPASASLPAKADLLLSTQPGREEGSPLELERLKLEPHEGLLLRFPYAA

[4] = biological target: T2, 4F2hc, desialylated (neuraminidase-treated) (human, UniProt P08195-1 1-630, N-glycans at Asn365, Asn381, Asn424 and Asn506 without sialic acid (neuraminidase); fucosylation and branching retained); experiment: as above; settings: both partners purified
T2 construct: 4F2 cell-surface antigen heavy chain (4F2hc, SLC3A2), human, full-length cDNA in pCAG; also called desialylated 4F2hc; source: HEK293F, co-transfected with LAT1, purified, then neuraminidase digestion
T2 sequence (looked up): T1 sequence (looked up)

B1: LAT1-4F2hc heterodimer, wild type, fully glycosylated (complex)
chain 1: not shown
chain 2: T1 sequence (looked up)
modifications: phosphoserine at S35 (mono-phosphorylated proteoform, part of the population) | four highly branched, sialylated N-glycans at Asn365, Asn381, Asn424 and Asn506 (9 to 16 sialic acid residues); one phosphorylation site (residue not given)
notes: L-type amino acid transporter 1 (LAT1, SLC7A5), human, full-length cDNA in pCAG; 4F2 cell-surface antigen heavy chain (4F2hc, SLC3A2), human, full-length cDNA in pCAG; The two chains are joined by a disulfide bond; Two such heterodimers form the super-dimer (LAT1-4F2hc)2; also called LAT1-4F2hc complex; SLC7A5-SLC3A2; source: HEK293F, co-transfected, purified (anti-Flag M2 resin, Ni-NTA, SEC) in …
stoichiometry N [1]: 2

binding result [3]: binds
binding result [4]: binds
B2: L-type amino acid transporter 1 (LAT1, SLC7A5) (natural protein)
chain: not shown
modifications: phosphoserine at S35 (mono-phosphorylated proteoform, part of the population)
notes: L-type amino acid transporter 1 (LAT1, SLC7A5), human, full-length cDNA in pCAG; also called light chain; source: HEK293F, co-transfected with 4F2hc, purified (anti-Flag M2 resin, Ni-NTA, SEC) in digitonin
stoichiometry N [2]: 2
